# Reference: IntAct's records for PubMed 14596919
# B1: Disabled homolog 2 (Mus musculus), P98078 (parent)
# chain: MSNEVETSTTNGQPDQQAAPKAPSKKEKKKGSEKTDEYLLARFKGDGVKYKAKLIGIDDVPDARGDKMSQDSMMKLKGMAAAGRSQGQHKQRIWVNISLSGIKIIDEKTGVIEHEHPVNKISFIARDVTDNRAFGYVCGGEGQHQFFAIKTGQQAEPLVVDLKDLFQVIYNVKKKEEDKKKVEEANKAEENGSEALMTLDDQANKLKLGVDQMDLFGDMSTPPDLNSPTESKDILLVDLNSEIDTNQNSLRENPFLTNGVTSCSLPRPKPQASFLPENAFSANLNFFPTPNPDPFRDDPFAQPDQSAPSSFDSLTSPDQKKASLSSSSTPQSKGPLNGDTDYFGQQFDQLSNRTGKPEAQGGPWPYPSSQTQQAVRTQNGVSEREQNGFHIKSSPNPFVGSPPKGLSVPNGVKQDLESSVQSSAHDSIAIIPPPQSTKPGRGRRTAKSSANDLLASDIFASEPPGQMSPTGQPAVPQSNFLDLFKGNAPAPVGPLVGLGTVPVTPPQAGPWTPVVYSPSTTVVPGAIISGQPPSFRQPLVFGTTPAVQVWNQSPSFATPASPPPPTVWCPTTSVAPNAWSSTSPLGNPFQSNNIFPPPTMSTQSSPQPMMSSVLATPPQPPPRNGPLKDIPSDAFTGLDPLGDKEVKEVKEMFKDFQLRQPPLVPSRKGETPPSGTSSAFSSYFNNKVGIPQEHVDHDDFDANQLLNKINEPPKPAPRQGVLLGTKSADNSLENPFSKGFSSSNPSVVSQPASSDPHRSPFGNPFA
# Variants of: B1
# Settings: with sh3k1_human SH3KBP1, Q96B97
# Chain of sh3k1_human SH3KBP1, Q96B97 (Q96B97 whole entry): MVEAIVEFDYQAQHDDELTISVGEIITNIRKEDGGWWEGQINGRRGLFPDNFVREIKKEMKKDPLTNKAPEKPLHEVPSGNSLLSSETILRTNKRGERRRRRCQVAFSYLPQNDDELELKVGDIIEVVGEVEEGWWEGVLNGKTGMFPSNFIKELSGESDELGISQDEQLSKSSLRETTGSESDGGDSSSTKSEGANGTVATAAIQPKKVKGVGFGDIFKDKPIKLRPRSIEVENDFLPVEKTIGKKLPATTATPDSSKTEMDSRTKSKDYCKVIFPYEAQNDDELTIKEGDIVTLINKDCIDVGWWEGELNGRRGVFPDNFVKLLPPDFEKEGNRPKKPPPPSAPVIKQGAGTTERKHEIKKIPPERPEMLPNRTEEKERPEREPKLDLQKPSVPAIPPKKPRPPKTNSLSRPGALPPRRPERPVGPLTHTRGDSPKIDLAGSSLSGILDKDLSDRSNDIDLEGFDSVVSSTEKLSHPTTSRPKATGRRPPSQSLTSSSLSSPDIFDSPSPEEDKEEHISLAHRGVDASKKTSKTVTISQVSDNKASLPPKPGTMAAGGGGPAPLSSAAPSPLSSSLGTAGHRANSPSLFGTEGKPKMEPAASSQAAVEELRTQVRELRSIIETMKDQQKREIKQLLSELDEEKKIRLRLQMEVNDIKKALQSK
row,Variant,effect of a mutation on the interaction
1,R718A,disrupting interaction

# Variants of: B1
# Settings: with sh3k1_human SH3KBP1, Q96B97
# Remark: another data set of the same source
row,Variant,effect of a mutation on the interaction
1,R718A,decreasing interaction
